Assay results taken from patent US10000775B2, “Biosynthesis of 1-undecene and related terminal olefins” (The Regents of the University of California, priority 2013, dated 2018).

Assays:
[1] = In vitro activity of PFL_4321 and PFL_0203 toward fatty acids with various chain lengths; format: biochemical; set-up: key to In vitro activity toward C8:0 / In vitro activity toward C10:0 / In vitro activity toward C12:0 / In vitro activity toward C14:0 / In vitro activity toward C16:0: ✓: indicates production of the corresponding 1-alkene from the indicated substrate; x: indicates failure to produce the corresponding 1-alkene from the indicated substrate
Experimental: A typical condition is as follows: 1 mL of reaction mixture contains 50 mM MES buffer (pH 6.2), 300 mM NaCl, 100 μM (NH4)2Fe(SO4)2, 1 mM ascorbic acid, 100 μM fatty acid substrate or analogs, and 10 μM enzyme. The reaction was performed in a sealed headspace vial at 30° C., initiated by adding lauric acid and quenched by injecting equal volume of 5 M NaOH. 1-Undecene production was analyzed and quantified by using the SPME-GCMS method. To determine the kinetic parameters of PFL_4321 on lauric acid, initial velocities at 1, 10, 20, 50, 100, and 150 μM of lauric acid were measured (25 mM lauric acid solution was prepared by adding 0.5% tergitol and heating at 65° C. for 10 min). The reactions were quenched at 2, 4, 6, 8, and 10 seconds, and the acquired turnover rates were fit to the Michaelis-Menten equation using GraphPad Prism to obtain kcat and Km. The kcat and Km of myristic acid and capric acid were determined similarly.
Unless otherwise noted, all experiments with PFL_0203 as described herein were performed using similar assays, procedures, and techniques as used in a given corresponding experiment as described in Example 1.
The fatty acid substrate specificity of PFL_0203 was investigated in a series of in vitro experiments. […] Thus, PFL_4321 and PFL_0203 share some overlap in suitable substrates; PFL_4321 is able to act on C10-C14 fatty acid substrates, and PFL_0203 is able to act on C10-C16 fatty acid substrates.

[2] = In vitro 1-undecene production by purified PFL_0203 with E. coli crude extract; format: biochemical; settings: purified PFL_0203 mixed with E. coli crude extract and exogenous lauric acid
[3] = tested on: E. coli; assay: 1-undecene production in E. coli overexpressing PFL_4321, PFL_0203 or homologs, with or without UcFatB2; format: cell-based; settings: E. coli, one-day shake flask culture in LB media without exogenous lauric acid
Experimental: E. coli, P. aeruginosa PAO-1, and P. aeruginosa PA14 strains were grown in 5 mL of LB medium overnight at 37° C., while all the other Pseudomonas and Acinetobacter strains were grown at 30° C. […] The culture was shaken in a sealed 20 mL headspace vial (Agilent certified) containing a stir bar at 30° C. for 36 hr. After incubation, an SPME fiber (30 μm polydimethylsiloxane, Supelco, Sigma-Aldrich Group, Bellefonte, Pa.) was manually inserted into the headspace vial and incubated at 25° C. for 12.5 min. GC-MS analysis was conducted on a Varian CP-3800 instrument equipped with a Varian 320-MS. […] The signals of the 1-alkenes were identified and quantified by comparison with authentic samples (MP Biomedicals), which were diluted in ethyl acetate, added to 5 mL of culture medium in a sealed headspace vial, and sampled by the same SPME-GCMS method as described above.
[…] 1-Undecene production was detected by using the SPME-GCMS method. […]
To investigate whether PFL_0203 was facilitating the production of 1-undecene, this gene was individually expressed in E. coli and the cells were monitored for 1-undecene production. […]

B1: PFL_0203: hypothetical membrane-associated protein from Pseudomonas fluorescens Pf-5 converting C10-C16 fatty acids into 1-alkenes (protein, listed as Pseudomonas protegens)
chain: MQGISASPERMNAQQRAAHVRQVVLARGDELRRRFPLLRHQDALGAGILAFALSGMLGSALLYVTGHLAWWACLLLNAFFASLTHELEHDLIHSMYFRKQRLPHNLMLGLVWLARPSTINPWVRRHLHLNHHKVSGSESDIEERAITNGEPWGIARLLMVGDNMMAAFIRLLRAPGARRKLGILVRTLAVYAPLALLHWGAWYVFLGFHGANGVAALLGSPIQWSQDTASLMHYVDIAVVVIIGPNVLRTFCLHFVSSNMHYYGDIEPGNVIQQTQVLNPWWMWPLQAFCCNFGSTHGIHHFVVREPFYIRQMTASVAHKVMAEMGVRFNDFGTFARANRFTRQEREAMQPAHNARA
activity on C8 or C18 fatty acids ([1]; in vitro, C8 or C18 fatty acids): failed to act | conversion of C10-C16 fatty acids into their corresponding [M-1] 1-alkenes ([1]; in vitro, C10-C16 fatty acids): converted | In vitro activity toward C8:0 ([1]; substrate C8:0): x | In vitro activity toward C10:0 ([1]; substrate C10:0): trace | In vitro activity toward C12:0 ([1]; substrate C12:0): ✓ | In vitro activity toward C14:0 ([1]; substrate C14:0): ✓ | In vitro activity toward C16:0 ([1]; substrate C16:0): trace | 1-undecene production [2]: resulted in 1-undecene production | titer of 1-undecene [3]: ~0.2 µg/mL
